Data from CN116023497A (WEST CHINA HOSPITAL SICHUAN UNIV, dated 2023).

What was measured:
[1] = target: T1, DDR1胞外段(DDR1 ECD), His标签 (human); test: SPR (Biacore), 1:1 model; His-tagged DDR1 ECD on NTA chip, Tytug as analyte; exponent printed without minus sign, kd/ka gives 2.26e-10
T1 chain: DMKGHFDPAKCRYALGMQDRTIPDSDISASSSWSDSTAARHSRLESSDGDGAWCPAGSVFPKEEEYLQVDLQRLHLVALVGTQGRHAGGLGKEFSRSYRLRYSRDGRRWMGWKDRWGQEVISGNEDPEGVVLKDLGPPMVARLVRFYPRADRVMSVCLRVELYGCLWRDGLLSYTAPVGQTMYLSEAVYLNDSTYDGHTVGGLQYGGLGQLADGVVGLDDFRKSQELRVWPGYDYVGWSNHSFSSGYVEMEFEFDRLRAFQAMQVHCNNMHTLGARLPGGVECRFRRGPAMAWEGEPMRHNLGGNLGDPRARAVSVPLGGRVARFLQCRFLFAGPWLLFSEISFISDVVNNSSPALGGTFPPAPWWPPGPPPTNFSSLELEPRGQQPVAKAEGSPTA

[2] = target: T1, DDR1胞外段(DDR1 ECD), His标签; test: SPR (Biacore), 1:1 model; His-tagged DDR1 ECD on NTA chip, Tytug as analyte
[3] = target: T2, DDR2胞外段 (UniProt Q16832 22-399); test: ELISA, coated DDR2 ECD, dilution series of Tytug
T2 construct: range 22-399; also called DDR2 ECD
T2 sequence (looked up): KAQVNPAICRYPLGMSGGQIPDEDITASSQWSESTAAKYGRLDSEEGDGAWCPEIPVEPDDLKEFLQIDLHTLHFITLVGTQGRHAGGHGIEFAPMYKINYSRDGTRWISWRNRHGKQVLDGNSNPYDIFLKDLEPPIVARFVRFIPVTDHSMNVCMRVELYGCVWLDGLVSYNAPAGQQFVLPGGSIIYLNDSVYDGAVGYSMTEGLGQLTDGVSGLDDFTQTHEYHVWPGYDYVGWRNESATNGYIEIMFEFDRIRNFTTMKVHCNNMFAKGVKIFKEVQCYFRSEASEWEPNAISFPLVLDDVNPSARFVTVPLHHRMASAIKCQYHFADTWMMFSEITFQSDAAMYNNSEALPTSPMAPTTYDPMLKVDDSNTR

B1: Tytug抗体 (antibody, IgG1, V domains shown)
VH: QVQLQQPGAELVRPGSSVRLSCKASGYSFTSYWMNWVKQRPGQGLEWIGMIHPSDSKTRLDQKFKDKATLTVDKSSSTAYMQLSSPTSEDSAVYYCAREGTYYYAMDFWGQGTSVTVSS
VL: DVLMTQTPLSLPVSLGDQASISCRSSQTIVHSNGNTYLEWYLQKPGQSPKLLIYKVSNRFSGVPDRFSGSGSGTDFTLKISRVEAEDLGVYYCFQGSHDPYTFGGGTKLEIK
notes: Mouse hybridoma monoclonal antibody; also called T4-E11-F10; T4-E11-F10(Tytug)
- Kd [1]: 0.226 nM
- koff [2]: 4.66e-05 s⁻¹
- kon [2]: 207000 M⁻¹ s⁻¹
- binding result [3]: no binding
